The target of test [1] is T1, recombinant SARS-CoV-2 RBD with C-terminal AviTag (SARS-CoV-2, UniProt P0DTC2 319-541). Description: BLI, biotinylated RBD on streptavidin biosensors; OR: over-range [Cont. 6].
Test [2] deals with SARS-COV-2 Wuhan Reference RBD (SARS-CoV-2, UniProt P0DTC2 319-541). Description: ELISA, RBD coated.
Test [3] has as its target T1, recombinant SARS-CoV-2 RBD with …. Nature of the test: BLI, biotinylated RBD on streptavidin biosensors [Cont. 8].
The target is the same in test [4]. Description: ELISA, competition with coated ACE2-Fc for RBD [Cont. 8].
Test [5] has the same target. Description: BLI, biotinylated RBD on streptavidin biosensors.
Test [6] shares this target. Nature of the test: ELISA, competition with coated ACE2-Fc for RBD.
Test [7] has the same target. Description: ELISA, competition with coated ACE2-Fc for RBD [Cont. 5].
Test [8] has the same target.
Test [9] has the same target. The source holds these as a separate data set.
For test [10] the target is unchanged. The source holds these as a separate data set.
The target is the same in test [11]. The source holds these as a separate data set.
Test [12] has the same target. This is another data set of the same source.
For test [13] the target is unchanged. The source holds these as a separate data set.
The target is the same in test [14]. Nature of the test: ELISA, competition with coated ACE2-Fc for RBD [Cont. 3].
Test [15] shares this target. Description: ELISA, competition with coated ACE2-Fc for RBD [Cont. 4].
The target is the same in test [16]. The source holds these as a separate data set.
For test [17] the target is unchanged. This is another data set of the same source.

Where two headings read alike, the source gives them in different places.

B1: PP887 MBP-S1b-E7-H6 (VHH)
VHH: QVQLVESGGGLVQPGGSLRLSCAASGGEFSDNGLHWFRQAPGKQREFVATASSDGSTQYRDSVKGRFTISRDNAKNTVYLQMNSLKPEDTAVYYCTALLMSSAGEYDVWGQGTQVTVSS
notes: Form: Monomer
Turning to B1, in test [1], the Kd is about 6570 nM.

B2: PP931 MBP-5HVZ-R5a-F5-H6 (VHH)
VHH: QVQLVESGGGLVQPGGSLRLSCAASGYHASILAMHWVRQAPGKEREWVASMTWSDMTQYSDSVKGRFTISRDNAKNTVYLQMNSLKPEDTAVYYCAATYVTRDRPWTHWGQGTQVTVSS
notes: Form: Dimer
Molecule B2 returned an EC50 in [2] of 1.93 nM. Moreover, in test [3], the Kd is 11.9 nM. Also, the IC50 in test [4] is 5.6 nM.

B3: dimeric VHH (VHH-5HVZ-MBP) R2B-E6 (VHH)
VHH: QVQLVESGGGLVQPGGSLRLSCAASGGVTRGNAMAWYRQAPGKQREIVAAIDNGGSHAYGDSVKGRFTISRDNAKNTVYLQMNSLKPEDTAVYYCAVFPDHDSEQASIDRVYWGQGTQVTVSS
As to B3, in [5], the Kd turned out to be 10.3 nM. In [6], the IC50 is 17.9 nM.

B4: PP1141 MBP-4B0F-PAPA-R5d-D4-H6 (VHH)
VHH: QVQLVESGGGLVQPGGSLRLSCAASGSDFTINAMHWFRQAPGKQREFVATITSTSSTAYRDSVKGRFTISRDNAKNTVYLQMNSLKPEDTAVYYCAAFAVRDADTAGWTARDYWGQGTQVTVSS
notes: Form: Heptamer
As for B4, the IC50 in [7] is 74.6 nM.

B5: PP1896 Cerberbody (2-R2B-D5 and 1-S3b-C8) (other, not shown: large carriers)
chain 1: QVQLVESGGGLVQPGGSLRLSCAASGYADEINMVHWYRQAPGKGREFVAAIASGGSTFYADSVKGRFTISRDNAKNTVYLQMNSLKPEDTAVYYCAAIPRPSLSYAHDYAYWGQGTQVTVSSHHHHHH
chain 2: QVQLVESGGGLVQPGGSLRLSCAASGSIENIERMHWYRQAPGKQRELVAVIDSGGTTRYADSVKGRFTISRDNAKNTVYLQMNSLKPEDTAVYYCAAVWLTNAESTQEYWGQGTQVTVSSTVILEYAHRLSQDILSDALQQWASHHHHHHHH
For B5, in test [8], the Kd was under 0.001 nM, the koff is under 1e-07 s⁻¹ and the on-rate (kon) stood at 248000 M⁻¹ s⁻¹.

B6: PP1897 Cerberbody (3-S3b-C8) (other, not shown: large carriers)
chain 1: QVQLVESGGGLVQPGGSLRLSCAASGSIENIERMHWYRQAPGKQRELVAVIDSGGTTRYADSVKGRFTISRDNAKNTVYLQMNSLKPEDTAVYYCAAVWLTNAESTQEYWGQGTQVTVSSHHHHHH
chain 2: QVQLVESGGGLVQPGGSLRLSCAASGSIENIERMHWYRQAPGKQRELVAVIDSGGTTRYADSVKGRFTISRDNAKNTVYLQMNSLKPEDTAVYYCAAVWLTNAESTQEYWGQGTQVTVSSTVILEYAHRLSQDILSDALQQWASHHHHHHHH
In the case of B6, in test [9], the Kd worked out at 0.73 nM, the koff was found to be 0.000382 s⁻¹ and the kon turned out to be 521000 M⁻¹ s⁻¹.

B7: MBP-5HVZ-R5C-B1-H6 (VHH, not shown: large carriers; small tags and cut ends)
VHH: QVQLVESGGGLVQPGGSLRLSCAASGSGFSNNAMHWYRQAPGKQREGVAGITSGSVSFYADSVKGRFTISRDNAKNTVYLQMNSLKPEDTAVYYCAAVTGSSTGNAGQGYLTWGQGTQVTVSS
Regarding B7, the Kd in [10] was determined as 10 nM; in test [11], 9.98 nM. In addition, in test [11], the concentration for half-maximal inhibition (IC50) was 0.3 nM.

B8: MBP-R2B-D5-H6 (VHH)
VHH: QVQLVESGGGLVQPGGSLRLSCAASGYADEINMVHWYRQAPGKGREFVAAIASGGSTFYADSVKGRFTISRDNAKNTVYLQMNSLKPEDTAVYYCAAIPRPSLSYAHDYAYWGQGTQVTVSS
notes: monomer
B8: the Kd in test [5] turned out to be 82 nM.

B9: PP1898 Cerberbody (1-R2B-D5 and 2-S3b-C8) (other, not shown: large carriers; small tags and cut ends)
VHH 1: QVQLVESGGGLVQPGGSLRLSCAASGSIENIERMHWYRQAPGKQRELVAVIDSGGTTRYADSVKGRFTISRDNAKNTVYLQMNSLKPEDTAVYYCAAVWLTNAESTQEYWGQGTQVTVSS
VHH 2: QVQLVESGGGLVQPGGSLRLSCAASGYADEINMVHWYRQAPGKGREFVAAIASGGSTFYADSVKGRFTISRDNAKNTVYLQMNSLKPEDTAVYYCAAIPRPSLSYAHDYAYWGQGTQVTVSS
With B9, in [12], the Kd turned out to be 0.4 nM, the koff is 0.000218 s⁻¹ and the kon was determined as 540000 M⁻¹ s⁻¹.

B10: R2B-D5 monomer (PP805) (VHH, not shown: large carriers; small tags and cut ends)
VHH: QVQLVESGGGLVQPGGSLRLSCAASGYADEINMVHWYRQAPGKGREFVAAIASGGSTFYADSVKGRFTISRDNAKNTVYLQMNSLKPEDTAVYYCAAIPRPSLSYAHDYAYWGQGTQVTVSS
With B10, in test [13], the Kd worked out at 10 nM, the koff turned out to be 0.00226 s⁻¹ and the kon was 226000 M⁻¹ s⁻¹.

B11: MBP-5HVZ-R5B-G1-H6 (VHH)
VHH: QVQLVESGGGLVQPGGSLRLSCAASGSIGQIVLVHWFRQAPGKQRELVAGITSPSSTYYADSVKGRFTISRDNAKNTVYLQMNSLKPEDTAVYYCNTELEGKTQGFTGKTVWYDYWGQGTQVTVSS
Take B11: the IC50 in test [14] amounted to 26.6 nM.

B12: PP1150 MBP-5HVZ-PAPA-R5b-G1-H6 (VHH)
VHH: QVQLVESGGGLVQPGGSLRLSCAASGSIGQIVLVHWFRQAPGKQRELVAGITSPSSTYYADSVKGRFTISRDNAKNTVYLQMNSLKPEDTAVYYCNTELEGKTQGFTGKTVWYDYWGQGTQVTVSS
notes: Form: Dimer
In test [2], B12 returned an EC50 of 0.64 nM. In addition, in test [14], the IC50 was 5.2 nM.

B13: PP1152 MBP-5HVZ-PAPA-R5d-B6-H6 (VHH)
VHH: QVQLVESGGGLVQPGGSLRLSCAASGRILAANIVHWYRQAPGKEREGVAGITSGGGSYYADSVKGRFTISRDNAKNTVYLQMNSLKPEDTAVYYCNALGLGQSSLYRSADPYDSWGQGTQVTVSS
notes: Form: Dimer
As to B13, in test [15], the IC50 was 4.7 nM.

B14: PP1140 MBP-4B0F-PAPA-R5d-B6-H6 (VHH)
VHH: QVQLVESGGGLVQPGGSLRLSCAASGRILAANIVHWYRQAPGKEREGVAGITSGGGSYYADSVKGRFTISRDNAKNTVYLQMNSLKPEDTAVYYCNALGLGQSSLYRSADPYDSWGQGTQVTVSS
notes: Form: Heptamer
For B14, the IC50 in test [7] was 106 nM.

B15: R5A-B7 (competition ELISA sample) (VHH)
VHH: QVQLVESGGGLVQPGGSLRLSCAASGAFFSYGAIHWFRQAPGKQREEVAAITSGGSTGYADSVKGRFTISRDNAKNTVYLQMNSLKPEDTAVYYCNAGVVWLPSNAAYNLWGQGTQVTVSS
In the case of B15, in test [16], the Kd turned out to be 13.1 nM.

B16: PP927 MBP-5HVZ-R1i-C8-H6 (VHH)
VHH: QVQLVESGGGLVQPGGSLRLSCAASGRQFGAWRMHWYRQAPGKQREWVAGITSGTSGNYADSVKGRFTISRDNAKNTVYLQMNSLKPEDTAVYYCAATSHTTYHAEYWGQGTQVTVSS
notes: Form: Dimer
Molecule B16 came in with an EC50 in [2] of 1.43 nM. Also, the dissociation constant (Kd) in [3] is 25.2 nM. For the same molecule, the concentration for half-maximal inhibition (IC50) in [4] came to 111 nM.

B17: PP934 MBP-5HVZ-S3a-H2-H6 (VHH)
VHH: QVQLVESGGGLVQPGGSLRLSCAASGAAFSKNALHWFRQAPGKGREWVASITSGSGTQYMDSVKGRFTISRDNAKNTVYLQMNSLKPEDTAVYYCAALAYSGGYDYWGQGTQVTVSS
notes: Form: Dimer
In the case of B17, the EC50 in [2] worked out at 1.07 nM. Further, in test [3], the Kd came to 18.4 nM. Besides, in [4], the 50% inhibitory concentration (IC50) is 2.2 nM.

B18: MBP-5HVZ-R5A-E5-H6 (VHH, not shown: large carriers; small tags and cut ends)
VHH: QVQLVESGGGLVQPGGSLRLSCAASGYDFDILRMAWFRQAPGKEREMVAAITSAESVNYEDSVKGRFTISRDNAKNTVYLQMNSLKPEDTAVYYCATYDYTDDYGYASWGQGTQVTVSS
On to B18, for which the Kd was about 31 nM in test [10] and 31 nM in [17]. For the same molecule, the IC50 in test [17] came out at 17.7 nM.

B19: PP1151 MBP-5HVZ-PAPA-R5d-B5-H6 (VHH)
VHH: QVQLVESGGGLVQPGGSLRLSCAASGSRDSIVAMHWYRQAPGKGREGVAGITSRWVTYYADSVKGRFTISRDNAKNTVYLQMNSLKPEDTAVYYCNAPVYYDTEWYDIWGQGTQVTVSS
notes: Form: Dimer
Turning to B19, the IC50 in test [15] was 23.1 nM.

Values taken from patent US20240150440A1 (LUMEN BIOSCIENCE, published 2024).
